Reference: publication PMC12472674 (Nanomaterials, 2025)

Key:
[1] = Solubility of SMG in release medium; format: physicochemical
[2] = Octanol–water partition coefficient (logP), shake-flask method; format: physicochemical; conditions: mutually saturated n-octanol/distilled water, 10 mg freeze-dried complex in 10 mL of each phase, stirred 400 rpm 24 h, 25 °C, HPLC-UV 230 nm, SMG 5.36 mg/mL, in the presence of Zn 0.5 mg/mL (Figure 2a), mean, n = 3
Description: The prepared SMG–PS–Zn complex suspensions were stored at −80 °C for 24 h, then freeze-dried using a lyophilizer (TFD 8501, Ilshinbiobase Co. Ltd., Dongducheon-si, Republic of Korea) at −80 °C and under a vacuum of <10 mTorr for 24 h to obtain dried samples. Then, the octanol–water partition coefficient (logP) was determined using the classical shake-flask method. Equal volumes of n-octanol and distilled water were mutually saturated by vigorous mixing and phase separation. Ten milligrams of freeze-dried complexes were placed in a 20 mL scintillation vial, followed by the addition of 10 mL each of the pre-saturated octanol and water phases. The vial was sealed and stirred at 400 rpm for 24 h to reach equilibrium. After incubation, the mixture was centrifuged at 13,000 rpm to separate the phases. The octanol phase was diluted 10-fold with methanol, and the aqueous phase was diluted 10-fold with the mobile phase. Drug concentrations in both phases were quantified using high-performance liquid chromatography (HPLC) analysis, and logP was calculated as the logarithm of the ratio of drug concentration in octanol to that in water.
The concentration of SMG in the complex suspension was quantified by reversed phase-HPLC, with minor modifications to previously reported methods. […] The limits of detection and quantification were 0.523 μg/mL and 1.569 μg/mL, respectively.

[3] = healthy subjects, SC injection; cited from earlier work
From the text: SMG is a 31-amino acid peptide with a molecular weight of 4113.58 Da, structurally derived from native GLP-1 by substitutions at positions 8 (alanine to α-aminoisobutyric acid) and 34 (lysine to arginine), and acylation of the lysine residue at position 26 with a C18 fatty diacid chain. These modifications enhance albu ...

Semaglutide [SMG]
Solubility in PBS (pH 7.4) release medium [1]: 26.8 mg/mL
logP (octanol/distilled water) [2]: approximately −4.7
Elimination half-life [3]: approximately 7 days
